From article PMC5669353 (Biochemistry and Biophysics Reports, 2015) come the findings set out here.

The target in data set [1] is T1, lactoperoxidase (Bos taurus, UniProt P80025). The conditions noted are these: read-out: Km, / µM; 80 uM H2O2, 2 mM SCN-, pH 7.4, 37 C; substrate.
Data set [2] has as its target T1, lactoperoxidase. The format is biochemical.
For data set [3], the system named is O=c1c(O)c(-c2ccc(O)c(O)c2)oc2cc(O)cc(O)c12. Briefly: purified protein. The following applies: heme.
The subject of data set [4] is O=C1C[C@@H](c2ccc(O)c(O)c2)Oc2cc(O)cc(O)c21. Briefly: purified protein. The conditions noted are these: heme.
Another data set concerns O=C(O)c1ccc(O)c(O)c1. Briefly: purified protein. The conditions noted are these: heme.
Data set [5] deals with Oc1cc(O)c2c(c1)O[C@H](c1ccc(O)c(O)c1)[C@H](O)C2. Briefly: purified protein. The conditions noted are these: heme.
Data set [6] deals with O=c1cc(-c2ccc(O)cc2)oc2cc(O)cc(O)c12. Briefly: purified protein. The conditions noted are these: heme.
The test system of data set [7] is O=C(O)/C=C/c1ccc(O)c(O)c1. Put plainly: purified protein. The following applies: heme.
Another data set deals with OCCc1ccc(O)c(O)c1. Briefly: purified protein. The conditions noted are these: heme substrate channel of LPO.
Data set [8] has as its system O=c1cc(-c2ccc(O)c(O)c2)oc2cc(O)cc(O)c12. Briefly: purified protein. The following applies: heme.
For the next data set, the system named is O=C(O)c1cccc(O)c1O. Briefly: purified protein, by the assay type.
In the next data set the test system is O=C(O)c1ccccc1O. Put plainly: purified protein, by the assay type.
In another data set the test system is O=C(O)c1ccc(O)cc1O. Put plainly: purified protein, by the assay type.
In data set [9] the test system is O=C1C[C@@H](c2ccc(O)c(O)c2)Oc2cc(O)cc(O)c21. Put plainly: purified protein, by the assay type.
The test system of a further data set is O=C(O)c1c(O)cccc1O. Put plainly: purified protein, by the assay type.
The subject of the next data set is O=C(O)c1cc(O)c(O)c(O)c1. Put plainly: purified protein, by the assay type.
The next data set has as its system O=C(O)c1ccc(O)c(O)c1O. Put plainly: purified protein, by the assay type.
Data set [10] concerns O=C1C[C@@H](c2ccc(O)cc2)Oc2cc(O)cc(O)c21. Briefly: purified protein, by the assay type.
In a further data set the test system is O=C(O)/C=C/c1ccc(O)cc1. Briefly: purified protein, by the assay type.
In the next data set the test system is COc1cc(C(=O)O)ccc1O. Put plainly: purified protein, by the assay type.
For a further data set, the system named is O=C(O)c1cc(O)cc(O)c1. Put plainly: purified protein, by the assay type.
A further data set has as its system O=C(O)c1ccc(O)cc1. Put plainly: purified protein, by the assay type.
The test system of another data set is COc1ccc(C(=O)O)cc1O. Put plainly: purified protein, by the assay type.
The subject of a further data set is O=C(O)c1cc(O)ccc1O. Put plainly: purified protein, by the assay type.
The next data set has as its system O=C(O)/C=C/c1cccc(O)c1. Briefly: purified protein, by the assay type.
Another data set has as its system O=C(O)c1cccc(O)c1. Put plainly: purified protein, by the assay type.
A further data set relates to OCCc1ccc(O)cc1. Briefly: purified protein, by the assay type.
Data set [11] relates to O=C1c2c(O)cc(O)cc2O[C@H](c2ccc(O)c(O)c2)[C@H]1O. Put plainly: purified protein, by the assay type.

In the case of `COc1ccc(C(=O)O)cc1OC` [3,4-dimethoxybenzoic acid], the Km on lactoperoxidase [1] worked out at 981 ± 69.8 µM.

For orientation: IC50 means the point on the concentration scale where inhibition reaches its midpoint. Consider `O=c1cc(-c2ccccc2)oc2cc(O)cc(O)c12` [chrysin], for which the IC50 at lactoperoxidase [2] came out at 0.23 ± 0.15 µM.

As usually defined, the kcat is the number of substrate molecules converted per active site and unit of time at saturation. The term kcat/Km denotes the second-order rate constant that governs catalysis at low substrate concentration. As to lactoperoxidase (Bos taurus), the Km was 1.7 ± 0.2 µM in data set [3]; 0.358 ± 0.005 µM in [4]; 63.9 ± 51.4 µM with O=C(O)c1ccc(O)c(O)c1; 0.6 ± 0.0 µM in [5]; 0.1 ± 0.0 µM in [6]; 6.9 ± 0.3 µM in data set [7]. Further, the Km in the data set with OCCc1ccc(O)c(O)c1 turned out to be 1.6 ± 0.1 µM; in [8], 0.2 ± 0.0 µM; with O=C(O)c1cccc(O)c1O it was 71.3 ± 1.3 µM; in the data set on O=C(O)c1ccccc1O, 1638.4 ± 439.3 µM; in the data set with O=C(O)c1ccc(O)cc1O it was 119.6 ± 8.3 µM; in data set [9], 0.4 ± 0.0 µM. The Km in the data set on O=C(O)c1c(O)cccc1O worked out at 149.1 ± 51.4 µM; with O=C(O)c1cc(O)c(O)c(O)c1 it was 176.8 ± 0.0 µM; with O=C(O)c1ccc(O)c(O)c1O, 84.8 ± 0.0 µM; in [10] it was 0.2 ± 0.0 µM; in the data set with O=C(O)/C=C/c1ccc(O)cc1 it was 35.1 ± 0.1 µM; in the data set on COc1cc(C(=O)O)ccc1O, 948.4 ± 0.2 µM. Further, the Km in the data set with O=C(O)c1cc(O)cc(O)c1 was found to be 118.0 ± 7.9 µM; in the data set on O=C(O)c1ccc(O)cc1, 119.6 ± 8.1 µM; in the data set on COc1ccc(C(=O)O)cc1O it was 803.5 ± 147.2 µM; with O=C(O)c1cc(O)ccc1O it was 304.2 ± 0.1 µM; in the data set with O=C(O)/C=C/c1cccc(O)c1, 37.8 ± 8.9 µM; in the data set on O=C(O)c1cccc(O)c1, 144.2 ± 28.9 µM. The results for the Km (in the data set on OCCc1ccc(O)cc1; in [11]) were 4.5 ± 0.0 µM and 0.8 ± 0.0 µM, respectively. Besides, the catalytic constant (kcat) in data set [3] amounted to 102 s⁻¹; in the data set with O=C(O)c1ccc(O)c(O)c1 it was 59.2 s⁻¹; in data set [5], 41.4 s⁻¹; in [6], 13.1 s⁻¹; in data set [7] it was 37.2 s⁻¹; in the data set with OCCc1ccc(O)c(O)c1, 67 s⁻¹. The kcat stood at 91.6 s⁻¹ in data set [8]; 17.9 s⁻¹ with O=C(O)c1cccc(O)c1O; 7 s⁻¹ in the data set on O=C(O)c1ccc(O)cc1O; 52.4 s⁻¹ in data set [9]; 14.8 s⁻¹ with O=C(O)c1c(O)cccc1O; 30.9 s⁻¹ with O=C(O)c1cc(O)c(O)c(O)c1. For the same compound, the kcat with O=C(O)c1ccc(O)c(O)c1O came out at 24.5 s⁻¹; in [10] it was 19 s⁻¹; in the data set with O=C(O)/C=C/c1ccc(O)cc1 it was 11 s⁻¹; with COc1cc(C(=O)O)ccc1O, 78.5 s⁻¹; with O=C(O)c1cc(O)cc(O)c1, 22.7 s⁻¹; in the data set with O=C(O)c1ccc(O)cc1, 16.7 s⁻¹. Further, the kcat in the data set on COc1ccc(C(=O)O)cc1O was 67.7 s⁻¹; with O=C(O)c1cc(O)ccc1O, 22.4 s⁻¹; in the data set on O=C(O)/C=C/c1cccc(O)c1, 24 s⁻¹; with O=C(O)c1cccc(O)c1, 36.5 s⁻¹; in the data set on OCCc1ccc(O)cc1 it was 39 s⁻¹; in data set [11], 48.2 s⁻¹. The kcat/Km in data set [3] stood at 6.07e+07 M⁻¹ s⁻¹; in the data set on O=C(O)c1ccc(O)c(O)c1, 930000 M⁻¹ s⁻¹; in [5], 6.84e+07 M⁻¹ s⁻¹; in data set [6], 1.22e+08 M⁻¹ s⁻¹; in [7] it was 5.4e+06 M⁻¹ s⁻¹; with OCCc1ccc(O)c(O)c1, 4.21e+07 M⁻¹ s⁻¹. In addition, the catalytic efficiency (kcat/Km) in data set [8] turned out to be 4.72e+08 M⁻¹ s⁻¹; with O=C(O)c1cccc(O)c1O it was 250000 M⁻¹ s⁻¹; in the data set on O=C(O)c1ccc(O)cc1O it was 60000 M⁻¹ s⁻¹; in [9], 1.46e+08 M⁻¹ s⁻¹; in the data set with O=C(O)c1c(O)cccc1O, 100000 M⁻¹ s⁻¹; with O=C(O)c1cc(O)c(O)c(O)c1, 180000 M⁻¹ s⁻¹. The kcat/Km in the data set with O=C(O)c1ccc(O)c(O)c1O was found to be 290000 M⁻¹ s⁻¹; in data set [10], 1.03e+08 M⁻¹ s⁻¹; with O=C(O)/C=C/c1ccc(O)cc1 it was 310000 M⁻¹ s⁻¹; in the data set with COc1cc(C(=O)O)ccc1O it was 80000 M⁻¹ s⁻¹; in the data set with O=C(O)c1cc(O)cc(O)c1, 190000 M⁻¹ s⁻¹; with O=C(O)c1ccc(O)cc1, 140000 M⁻¹ s⁻¹. Further, the catalytic efficiency (kcat/Km) in the data set on COc1ccc(C(=O)O)cc1O was determined as 80000 M⁻¹ s⁻¹; with O=C(O)c1cc(O)ccc1O it was 70000 M⁻¹ s⁻¹; with O=C(O)/C=C/c1cccc(O)c1, 630000 M⁻¹ s⁻¹; with O=C(O)c1cccc(O)c1, 250000 M⁻¹ s⁻¹; with OCCc1ccc(O)cc1 it was 8.73e+06 M⁻¹ s⁻¹; in data set [11], 6.3e+07 M⁻¹ s⁻¹.

With `O=C(O)c1c(O)cc(O)cc1O` [2,4,6-trihydroxybenzoic acid], the IC50 against lactoperoxidase [2] amounted to 36.7 ± 9.6 µM.
